Results reported in the supplement of paper PMC6379048.
pEC50: −log10 of the molar value.

Columns and labels:
Assay in all cases: EC50 of free RNA motif oligo competing protein binding to immobilised probe
[1] = biological target: T1, RBM17 (UniProt Q96I25)
T1 sequence: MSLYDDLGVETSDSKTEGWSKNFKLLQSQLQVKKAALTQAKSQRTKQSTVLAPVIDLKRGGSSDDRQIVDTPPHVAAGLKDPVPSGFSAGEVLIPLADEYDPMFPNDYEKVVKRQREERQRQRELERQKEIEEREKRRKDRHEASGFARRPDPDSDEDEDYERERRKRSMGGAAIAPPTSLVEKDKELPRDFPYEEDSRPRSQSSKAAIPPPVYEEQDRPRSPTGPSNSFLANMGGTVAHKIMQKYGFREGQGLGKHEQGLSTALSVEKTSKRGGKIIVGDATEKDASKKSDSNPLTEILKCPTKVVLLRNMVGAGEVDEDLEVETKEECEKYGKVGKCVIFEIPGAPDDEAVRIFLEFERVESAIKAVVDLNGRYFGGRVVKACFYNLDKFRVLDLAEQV
Method in brief: (§1)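 Kd was calculated as EC50, taken from a four-parameter log-logistic fit, multiplied by a protein-dependent depletion factor. The assay used HEK293-FT lysate (2.5 mg protein/well) pre-incubated for 1 h at 4°C with free RNA oligos (0 nM to 30 μM), then incubated for 30 min at 4°C with the matching oligos bound through a 5′-amino-C6 linker to NHS-Sepharose beads. Bound proteins were measured by label-free LC-MS/MS and normalised to the control.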

[2] = biological target: RPS16 (UniProt P62249)
Method in brief: as §1

[3] = biological target: T2, MEX3B (UniProt Q6ZN04)
T2 sequence: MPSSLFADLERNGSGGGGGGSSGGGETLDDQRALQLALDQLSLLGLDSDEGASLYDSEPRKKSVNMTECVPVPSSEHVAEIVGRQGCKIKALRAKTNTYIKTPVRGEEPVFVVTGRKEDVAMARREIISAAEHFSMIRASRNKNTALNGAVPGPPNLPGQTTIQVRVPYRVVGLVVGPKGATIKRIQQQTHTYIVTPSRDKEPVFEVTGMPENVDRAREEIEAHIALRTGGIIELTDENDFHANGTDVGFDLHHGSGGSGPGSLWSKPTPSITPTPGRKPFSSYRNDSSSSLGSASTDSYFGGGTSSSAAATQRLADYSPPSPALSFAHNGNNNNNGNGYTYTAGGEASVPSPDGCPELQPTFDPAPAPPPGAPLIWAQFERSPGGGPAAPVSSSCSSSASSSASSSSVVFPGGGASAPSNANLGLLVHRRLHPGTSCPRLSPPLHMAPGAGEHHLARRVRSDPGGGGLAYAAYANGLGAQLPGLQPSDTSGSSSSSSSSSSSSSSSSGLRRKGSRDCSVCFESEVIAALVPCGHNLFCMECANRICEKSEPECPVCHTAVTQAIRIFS
Method in brief: as §1

[4] = biological target: T3, CSTF2 (UniProt P33240)
T3 sequence: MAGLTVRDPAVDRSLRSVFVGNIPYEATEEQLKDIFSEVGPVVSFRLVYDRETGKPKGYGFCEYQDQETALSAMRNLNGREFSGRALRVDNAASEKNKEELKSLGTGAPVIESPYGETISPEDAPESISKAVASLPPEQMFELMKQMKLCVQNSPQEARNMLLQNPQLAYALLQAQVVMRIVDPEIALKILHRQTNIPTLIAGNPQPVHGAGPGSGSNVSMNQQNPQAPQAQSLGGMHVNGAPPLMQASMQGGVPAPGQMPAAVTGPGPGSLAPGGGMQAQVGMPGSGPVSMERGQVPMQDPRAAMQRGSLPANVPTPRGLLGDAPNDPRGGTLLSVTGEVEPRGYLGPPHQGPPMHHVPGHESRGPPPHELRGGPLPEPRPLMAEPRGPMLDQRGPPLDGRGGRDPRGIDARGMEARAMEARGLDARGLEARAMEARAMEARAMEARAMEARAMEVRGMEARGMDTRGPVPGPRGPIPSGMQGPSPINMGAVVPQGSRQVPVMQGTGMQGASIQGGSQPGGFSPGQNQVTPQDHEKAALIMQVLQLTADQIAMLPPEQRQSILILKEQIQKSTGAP
Method in brief: as §1

[5] = biological target: LSM3 (UniProt P62310)
LSM3, sequence (P62310 whole entry): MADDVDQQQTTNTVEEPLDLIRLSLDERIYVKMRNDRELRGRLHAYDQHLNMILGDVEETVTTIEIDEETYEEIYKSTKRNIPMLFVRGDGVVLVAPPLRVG
Method in brief: as §1

[6] = biological target: HNRNPAB (UniProt Q99729)
HNRNPAB, sequence (Q99729 whole entry): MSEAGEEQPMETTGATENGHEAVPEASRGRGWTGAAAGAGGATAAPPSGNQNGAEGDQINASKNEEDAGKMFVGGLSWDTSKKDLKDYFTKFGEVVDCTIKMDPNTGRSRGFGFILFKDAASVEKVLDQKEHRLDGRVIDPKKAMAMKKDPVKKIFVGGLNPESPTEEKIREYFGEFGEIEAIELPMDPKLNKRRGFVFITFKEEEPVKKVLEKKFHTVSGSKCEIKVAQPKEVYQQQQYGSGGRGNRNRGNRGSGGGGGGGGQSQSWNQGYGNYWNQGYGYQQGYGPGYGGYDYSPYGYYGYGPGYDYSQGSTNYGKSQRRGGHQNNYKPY
Method in brief: as §1

[7] = biological target: ELAVL2 (UniProt Q12926)
ELAVL2, sequence (Q12926 whole entry): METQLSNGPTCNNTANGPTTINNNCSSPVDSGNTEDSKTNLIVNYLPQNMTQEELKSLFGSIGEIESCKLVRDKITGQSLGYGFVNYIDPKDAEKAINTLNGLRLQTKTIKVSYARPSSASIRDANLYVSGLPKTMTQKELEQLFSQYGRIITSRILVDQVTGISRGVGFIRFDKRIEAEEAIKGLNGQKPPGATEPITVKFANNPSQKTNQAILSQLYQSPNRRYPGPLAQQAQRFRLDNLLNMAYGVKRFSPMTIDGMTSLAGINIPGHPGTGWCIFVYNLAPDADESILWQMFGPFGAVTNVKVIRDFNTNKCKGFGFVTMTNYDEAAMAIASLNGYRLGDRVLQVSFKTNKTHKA
Method in brief: as §1

[8] = biological target: T4, RBMS2 (UniProt Q15434)
T4 sequence: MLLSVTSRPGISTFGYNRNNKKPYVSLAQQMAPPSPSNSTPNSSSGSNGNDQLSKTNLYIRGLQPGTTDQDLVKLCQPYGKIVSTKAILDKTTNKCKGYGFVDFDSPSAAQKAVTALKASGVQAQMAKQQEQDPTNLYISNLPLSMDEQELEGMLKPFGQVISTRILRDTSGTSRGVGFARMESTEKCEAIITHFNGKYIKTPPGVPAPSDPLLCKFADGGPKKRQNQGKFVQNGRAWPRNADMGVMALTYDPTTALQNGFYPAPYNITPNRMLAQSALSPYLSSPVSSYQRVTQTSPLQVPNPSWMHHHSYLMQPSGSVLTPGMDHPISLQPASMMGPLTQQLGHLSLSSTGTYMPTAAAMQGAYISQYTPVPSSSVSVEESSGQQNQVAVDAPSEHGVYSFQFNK
Method in brief: as §1

[9] = biological target: T5, LSM2 (UniProt Q9Y333)
T5 sequence: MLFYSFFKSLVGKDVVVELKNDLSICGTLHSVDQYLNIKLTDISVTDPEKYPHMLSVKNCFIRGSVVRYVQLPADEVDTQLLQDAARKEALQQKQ
Method in brief: as §1

| Sequence | pEC50 [1] | pEC50 [2] | pEC50 [3] | pEC50 [4] | pEC50 [5] | pEC50 [6] | pEC50 [7] | pEC50 [8] | pEC50 [9] |
| --- | --- | --- | --- | --- | --- | --- | --- | --- | --- |
| AAUAAA | 5.60 | 6.12 | 5.78 | 7.08 | 6.45 | 5.52 | 5.01 | 5.89 | 6.50 |
| CUGUCCU | – | 6.76 | – | – | – | – | – | – | – |
| UAUUUAU | 7.03 | – | 6.14 | 6.33 | 6.16 | 5.51 | 5.42 | 6.26 | 6.11 |
